The numbers were not newly measured in PMC3101942, which cites them from elsewhere.

The target of this data set is tissue factor (Homo sapiens) (UniProt P13726).
Sequence of UniProt P13726 (P13726 33-251): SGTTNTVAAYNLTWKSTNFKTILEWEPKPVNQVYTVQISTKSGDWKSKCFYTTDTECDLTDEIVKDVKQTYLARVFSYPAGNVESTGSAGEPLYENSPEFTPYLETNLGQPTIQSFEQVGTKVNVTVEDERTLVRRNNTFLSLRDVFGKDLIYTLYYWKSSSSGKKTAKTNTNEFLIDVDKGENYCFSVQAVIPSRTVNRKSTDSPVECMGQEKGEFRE

Regarding factor VII (from UniProt P08709), the Kd (in general, the free concentration of one partner at which half of the binding sites on the other are occupied at equilibrium, for simple one-to-one binding) is 1 pM.
